Laboratory results: patent US20050282743A1, “Molecular interactions in cells” (Arbor Vita Corporation, priority 2001, published 2005)

Assays:
[1] = biological target: T1, GST-APXL-1 PDZ domain 1 (Homo sapiens (Human)), Q13796; assay: G' assay; also: key of the grades not given here
T1 chain: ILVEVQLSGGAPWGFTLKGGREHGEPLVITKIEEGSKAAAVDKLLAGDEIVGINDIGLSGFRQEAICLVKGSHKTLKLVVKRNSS

[2] = biological target: GST-Atrophin-1 Interacting Protein PDZ domain 5 (Rattus norvegicus (Rat)), O88382; assay: G' assay; also: key of the grades not given here
Chain of GST-Atrophin-1 Interacting Protein PDZ domain 5 (Rattus norvegicus (Rat)), O88382 (O88382 1128-1225): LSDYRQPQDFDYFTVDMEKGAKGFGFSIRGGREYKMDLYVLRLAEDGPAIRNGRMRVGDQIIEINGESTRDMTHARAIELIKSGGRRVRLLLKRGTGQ

[3] = biological target: T2, GST-FLJ00011 PDZ domain 1 (Homo sapiens (Human)), Q9H5P4; assay: G' assay; also: key of the grades not given here
T2 chain: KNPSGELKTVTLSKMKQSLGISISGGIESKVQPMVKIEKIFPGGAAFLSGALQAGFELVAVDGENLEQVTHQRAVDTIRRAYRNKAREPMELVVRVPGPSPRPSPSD

[4] = biological target: GST-KIAA0316 PDZ domain 1 (Homo sapiens (Human)), Q14CM0; assay: G' assay; conditions: remark: other sources report otherwise; also: key of the grades not given here
Chain of GST-KIAA0316 PDZ domain 1 (Homo sapiens (Human)), Q14CM0 (Q14CM0 72-159): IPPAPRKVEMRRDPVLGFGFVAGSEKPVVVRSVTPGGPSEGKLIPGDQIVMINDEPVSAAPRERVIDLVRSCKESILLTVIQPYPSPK

[5] = biological target: T3, GST-KIAA0382 PDZ domain 1 (Canis lupus familiaris (Dog) (Canis familiaris)), A0A8I3; assay: G' assay; also: key of the grades not given here
T3 chain: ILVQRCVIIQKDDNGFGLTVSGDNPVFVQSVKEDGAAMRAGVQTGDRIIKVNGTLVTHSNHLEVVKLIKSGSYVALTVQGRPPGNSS

[6] = biological target: T4, GST-KIAA0807(S) PDZ domain 1 (Homo sapiens (Human)), Q6P0Q8; assay: G' assay; also: key of the grades not given here
T4 chain: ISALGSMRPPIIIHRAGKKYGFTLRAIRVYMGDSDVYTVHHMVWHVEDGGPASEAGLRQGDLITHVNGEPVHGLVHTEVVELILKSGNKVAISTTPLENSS

[7] = biological target: GST-KIAA807 [GST: P08515]; assay: G' assay; also: key of the grades not given here
Chain of GST-KIAA807 [GST: P08515] (P08515 whole entry, the tested form may be a part): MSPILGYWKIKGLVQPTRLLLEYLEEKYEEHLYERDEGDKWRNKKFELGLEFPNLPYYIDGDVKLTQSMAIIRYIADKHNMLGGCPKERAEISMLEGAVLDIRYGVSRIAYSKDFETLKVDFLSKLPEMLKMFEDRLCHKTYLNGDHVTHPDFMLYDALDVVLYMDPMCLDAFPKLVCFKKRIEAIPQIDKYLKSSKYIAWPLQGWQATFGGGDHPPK

[8] = biological target: T5, GST-Outer Membrane PDZ domain 1 (Homo sapiens (Human)), P57105; assay: G' assay; also: key of the grades not given here
T5 chain: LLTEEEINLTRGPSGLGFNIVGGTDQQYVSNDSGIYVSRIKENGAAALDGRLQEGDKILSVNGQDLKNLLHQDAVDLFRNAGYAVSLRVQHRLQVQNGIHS

[9] = biological target: T6, GST-PDZK1 PDZ domains 2, 3, 4, Q5T2W1; assay: G' assay; also: key of the grades not given here
T6 chain: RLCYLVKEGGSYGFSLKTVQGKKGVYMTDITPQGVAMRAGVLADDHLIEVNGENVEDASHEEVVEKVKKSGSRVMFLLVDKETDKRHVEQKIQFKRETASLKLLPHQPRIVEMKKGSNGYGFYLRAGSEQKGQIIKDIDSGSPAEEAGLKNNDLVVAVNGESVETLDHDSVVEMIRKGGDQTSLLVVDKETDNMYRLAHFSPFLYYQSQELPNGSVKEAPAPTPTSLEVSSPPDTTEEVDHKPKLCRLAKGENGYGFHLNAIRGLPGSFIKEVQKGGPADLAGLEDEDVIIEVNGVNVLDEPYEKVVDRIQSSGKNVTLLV

[10] = biological target: GST-PIST PDZ domain 1 (Mus musculus (Mouse)), Q8BH60; assay: G' assay; also: key of the grades not given here
[11] = biological target: T7, GST-Shank 1 PDZ domain 1 (Homo sapiens (Human)), Q9UPX8; assay: G' assay; also: key of the grades not given here
T7 chain: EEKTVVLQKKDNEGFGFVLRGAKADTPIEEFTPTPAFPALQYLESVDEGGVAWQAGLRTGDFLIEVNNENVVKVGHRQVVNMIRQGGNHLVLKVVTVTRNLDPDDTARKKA

[12] = biological target: T8, GST-Shank 3 PDZ domain 1 (human (hypothetical, computer cloned)), Q9BYB0; assay: G' assay; also: key of the grades not given here
T8 chain: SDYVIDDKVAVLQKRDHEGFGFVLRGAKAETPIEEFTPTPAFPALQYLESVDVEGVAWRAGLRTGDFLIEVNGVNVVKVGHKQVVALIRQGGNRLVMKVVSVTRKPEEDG

[13] = biological target: T4, GST-KIAA0807(S) PDZ domain 1 (Homo …); assay: G assay titration, PDZ 0.5 ug/ml
[14] = biological target: GST-BAI-1 Associated Protein PDZ domain 6 (Homo sapiens (Human)), Q96QZ7; assay: G' assay; also: key of the grades not given here
Chain of GST-BAI-1 Associated Protein PDZ domain 6 (Homo sapiens (Human)), Q96QZ7 (Q96QZ7 1143-1233): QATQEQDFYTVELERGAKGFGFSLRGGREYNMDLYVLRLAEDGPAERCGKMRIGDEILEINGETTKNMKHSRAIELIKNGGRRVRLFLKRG

[15] = biological target: GST-KIAA0147 PDZ domain 1 (Homo sapiens (Human)), Q14160; assay: G' assay; also: key of the grades not given here
Chain of GST-KIAA0147 PDZ domain 1 (Homo sapiens (Human)), Q14160 (Q14160 other isoform, or with tags, fused parts or gaps): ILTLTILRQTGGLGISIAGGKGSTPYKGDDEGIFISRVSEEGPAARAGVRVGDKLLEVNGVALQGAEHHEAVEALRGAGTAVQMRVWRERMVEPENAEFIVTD

[16] = biological target: GST-KIAA1634 PDZ domain 5 (Homo sapiens (Human)), Q5TCQ9; assay: G' assay; also: key of the grades not given here
Chain of GST-KIAA1634 PDZ domain 5 (Homo sapiens (Human)), Q5TCQ9 (Q5TCQ9 other isoform, or with tags, fused parts or gaps): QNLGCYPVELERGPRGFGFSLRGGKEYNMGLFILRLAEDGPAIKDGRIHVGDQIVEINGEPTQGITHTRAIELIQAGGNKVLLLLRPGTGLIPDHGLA

[17] = biological target: T9, GST-LIM-RIL PDZ domain 1 (Homo sapiens (Human)), P50479; assay: G' assay; also: key of the grades not given here
T9 chain: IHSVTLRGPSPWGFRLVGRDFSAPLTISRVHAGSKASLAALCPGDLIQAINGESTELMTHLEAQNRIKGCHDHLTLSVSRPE

[18] = biological target: T10, GST-PTN-4 PDZ domain 1 (Homo sapiens (Human)), P29074; assay: G' assay; also: key of the grades not given here
T10 chain: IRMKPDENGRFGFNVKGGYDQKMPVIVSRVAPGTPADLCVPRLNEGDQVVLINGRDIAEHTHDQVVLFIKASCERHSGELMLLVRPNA

[19] = biological target: T11, GST-KIAA1526 PDZ domain 1 (Homo sapiens (Human)), Q9P202; assay: G' assay; also: key of the grades not given here
T11 chain: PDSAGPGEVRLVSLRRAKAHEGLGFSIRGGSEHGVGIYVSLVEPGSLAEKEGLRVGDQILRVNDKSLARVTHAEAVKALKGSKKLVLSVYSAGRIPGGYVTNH

In the case of KENDYESISDLQQGRDITRL (modifications not checked) [PAG], the Classification [1] is reported as 2 A450 class, the Classification [2] is reported as 1 A450 class and the Classification [3] is reported as 3 A450 class. It also gave a Classification [4] of 1 A450 class, a Classification [5] of 1 A450 class and a Classification [6] of 5 A450 class. The Classification [7] was 5 A450 class, the Classification [8] was 2 A450 class and the Classification [9] was 1 A450 class. It also gave a Classification [10] of 1 A450 class, a Classification [11] of 4 A450 class and a Classification [12] of 2 A450 class. The Kd [13] was 350 nM.

QATSRNGHSARQHVVADTEL (modifications not checked) [CD34] gave a Classification [2] of 1 A450 class, a Classification [14] of 1 A450 class and a Classification [15] of 1 A450 class. It also gave a Classification [5] of 1 A450 class, a Classification [6] of 3 A450 class and a Classification [16] of 1 A450 class. The Classification [7] was 5 A450 class, the Classification [17] was 1 A450 class and the Classification [18] was 1 A450 class. For the same binder, the Classification [11] was 1 A450 class.

In the case of QPTPTLGLNLGNDPDRGTSI (modifications not checked) [GluR delta-2], the Classification [6] is reported as 4 A450 class, the Classification [19] is reported as 2 A450 class and the Classification [7] is reported as 3 A450 class. It also gave a Classification [8] of 2 A450 class and a Kd [13] of 4000 nM.
